Laboratory results as given in publication PMC6041754 (Journal of Molecular Cell Biology, 2017).

Legend:
Ran^Δ181–216 = Ran^Δ181–216 (human, UniProt P62826 1-180); experiment: NMR
[1] = target: Ran (full-length, His6-tagged, from pET22b) (human, UniProt P62826 1-216); experiment: SPR

Binder	binding result (Ran^Δ181–216)	fold reduction of binding affinity against wild-type Mog1 [1]
Mog1 without a tag (co-expressed with Ran from pRSFDuet-1) (natural protein, isotope labels (2H, 15N, ILV methyl 13CH3) as the sample required) MEPTRDCPLFGGAFSAILPMGAIDVSDLRPVPDNQEVFCHPVTDQSLIVELLELQAHVRGEAAARYHFEDVGGVQGARAVHVESVQPLSLENLALRGRCQEAWVLSGKQQIAKENQQVAKDVTLHQALLRLPQYQTDLLLTFNQPPPDNRSSLGPENLSPAPWSLGDFEQLVTSLTLHDPNIFGPQ	binds	–
Mog1^E50K,E53K (natural protein) MEPTRDCPLFGGAFSAILPMGAIDVSDLRPVPDNQEVFCHPVTDQSLIVKLLKLQAHVRGEAAARYHFEDVGGVQGARAVHVESVQPLSLENLALRGRCQEAWVLSGKQQIAKENQQVAKDVTLHQALLRLPQYQTDLLLTFNQPPPDNRSSLGPENLSPAPWSLGDFEQLVTSLTLHDPNIFGPQ	–	~100 fold
